Measured values as given in patent US20210206856A1 (PANDION OPERATIONS, published 2021).
Where a chain is given by its changes, count along the chain named. In names and notes the source's numbering stands.

T1: recombinant mouse MAdCAM-1 (mouse, UniProt Q61826 22-365, limits assumed)
T1 construct: also called mMAdCAM-1; mouse MAdCAM-Fc
T1 sequence (looked up): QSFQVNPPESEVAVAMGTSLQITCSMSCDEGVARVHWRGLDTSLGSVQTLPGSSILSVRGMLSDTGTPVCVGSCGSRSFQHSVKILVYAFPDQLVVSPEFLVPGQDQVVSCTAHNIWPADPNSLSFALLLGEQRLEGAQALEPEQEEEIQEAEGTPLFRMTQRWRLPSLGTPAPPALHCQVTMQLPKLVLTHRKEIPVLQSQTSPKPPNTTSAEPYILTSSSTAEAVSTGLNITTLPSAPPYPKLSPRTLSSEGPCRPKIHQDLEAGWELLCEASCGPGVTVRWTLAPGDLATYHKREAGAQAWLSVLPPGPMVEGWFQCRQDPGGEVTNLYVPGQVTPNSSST

T2: human MAdCAM expressed on cells (human, UniProt Q13477 19-382)
T2 construct: whole, on cells; also called MADCAM1
T2 sequence (looked up): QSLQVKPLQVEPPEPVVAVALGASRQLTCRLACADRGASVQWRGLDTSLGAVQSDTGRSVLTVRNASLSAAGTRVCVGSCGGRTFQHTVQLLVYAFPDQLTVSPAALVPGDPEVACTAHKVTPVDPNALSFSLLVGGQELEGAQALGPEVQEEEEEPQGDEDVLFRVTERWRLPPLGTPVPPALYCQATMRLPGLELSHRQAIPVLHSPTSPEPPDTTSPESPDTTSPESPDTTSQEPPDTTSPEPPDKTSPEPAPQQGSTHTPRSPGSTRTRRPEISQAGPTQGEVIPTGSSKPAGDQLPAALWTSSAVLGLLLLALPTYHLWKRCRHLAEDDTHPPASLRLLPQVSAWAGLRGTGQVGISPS

T3: mouse MAdCAM expressed on cells (mouse, UniProt Q61826 22-405)
T3 construct: whole, on cells
T3 sequence (looked up): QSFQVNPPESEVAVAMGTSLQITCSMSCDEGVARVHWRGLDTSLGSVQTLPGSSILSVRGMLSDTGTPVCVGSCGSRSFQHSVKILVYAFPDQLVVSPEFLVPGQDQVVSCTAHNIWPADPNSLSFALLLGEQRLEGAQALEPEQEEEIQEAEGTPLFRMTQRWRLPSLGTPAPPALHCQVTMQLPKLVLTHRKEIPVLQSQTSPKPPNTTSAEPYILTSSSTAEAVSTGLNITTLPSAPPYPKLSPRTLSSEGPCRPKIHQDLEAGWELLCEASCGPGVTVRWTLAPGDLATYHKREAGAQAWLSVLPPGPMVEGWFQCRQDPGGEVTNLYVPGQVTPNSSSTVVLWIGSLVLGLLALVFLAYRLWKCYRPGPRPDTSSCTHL

T4: CD25 (Homo sapiens (Human), UniProt P01589 22-240)
T4 construct: also called IL-2R alpha chain
T4 sequence: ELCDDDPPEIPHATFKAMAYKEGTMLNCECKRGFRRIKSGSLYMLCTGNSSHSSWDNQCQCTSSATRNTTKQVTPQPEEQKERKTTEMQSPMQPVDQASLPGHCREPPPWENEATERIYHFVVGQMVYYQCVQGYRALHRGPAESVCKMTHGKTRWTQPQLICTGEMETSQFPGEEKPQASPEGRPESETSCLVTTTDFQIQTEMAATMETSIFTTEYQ

B1: MAdCAM Antibody Table 1 Clone 23 (scFv)
scFv: EVQLLESGGGLVQPGGSLRLSCAASGFTFSSYAMHWVRQAPGKGLEWVSGISGSGGSAYYADSVKGRFTISRDNSKNTLYLQMNSLRAEDTAVYYCATSQAPVDYYYYGMDVWGQGTTVTVSSGGGGSGGGGSGGGGSGGGGSDIQMTQSPSSLSASVGDRVTITCRASQSISSWLAWYQQKPGKAPKLLIYAASNLQRGVPSRFSGSGSGTDFTLTISSLQPEDFATYYCQQSYSIPITFGQGTKVEIK
B2: MAdCAM Antibody Table 1 Clone 20 (scFv)
scFv: EVQLLESGGGLVQPGGSLRLSCAASGFTFDDYAMHWVRQAPGKGLEWVSYIDTSSSHLYYADSVKGRFTISRDNSKNTLYLQMNSLRAEDTAVYYCARDEAAAGYYGMDVWGQGTTVTVSSGGGGSGGGGSGGGGSGGGGSDIQMTQSPSSLSASVGDRVTITCQAGQDISNYLNWYQQKPGKAPKLLIYDASNLETGVPSRFSGSGSGTDFTLTISSLQPEDFATYYCQQTYSTPITFGQGTKLEIK
B3: MAdCAM Antibody Table 1 Clone 6 (scFv)
scFv: EVQLLESGGGLVQPGGSLRLSCAASGFTFNNYAFHWVRQAPGKGLEWVSRINSYGTSTTYADSVKGRFTISRDNSKNTLYLQMNSLRAEDTAVYYCAREGPVAGYWYFDLWGQGTLVTVSSGGGGSGGGGSGGGGSGGGGSDIQMTQSPSSLSASVGDRVTITCRASQIIGTNLAWYQQKPGKAPKLLIYGASSLQSGVPSRFSGSGSGTDFTLTISSLQPEDFATYYCQQSYRLPFTFGQGTKVEIK
notes: also called Antibody Clone 6
B4: MAdCAM Antibody Table 1 Clone 19 (scFv)
scFv: EVQLLESGGGLVQPGGSLRLSCAASGFTFDDYAMHWVRQAPGKGLEWVSGISWNSGSIGYADSVKGRFTISRDNSKNTLYLQMNSLRAEDTAVYYCAKDIVAAGHYYYGMDVWGQGTTVTVSSGGGGSGGGGSGGGGSGGGGSDIQMTQSPSSLSASVGDRVTITCQASQDISNYLNWYQQKPGKAPKLLIYDASNLETGVPSRFSGSGSGTDFTLTISSLQPEDFATYYCQQSYSTPLTFGGGTKVEIK
B5: IL-2 mutein SEQ ID NO: 53 (Fc fusion)
chain: APTSSSTKKTQLQLEHLLLDLQMILNGINNYKNPKLTRMLTFKFYMPKKATEIKHLQCLEEELKPLEEALNLAPSKNFHLRPRDLISDINVIVLELKGSETTFMCEYADETATIVEFLNRWITFSQSIISTLTGGGGSGGGGSGGGGSGGGGSDKTHTCPPCPAPEAAGAPSVFLFPPKPKDTLMISRTPEVTCVVVDVSHEDPEVKFNWYVDGVEVHNAKTKPREEQYNSTYRVVSVLTVLHQDWLNGKEYKCKVSNKALPAPIEKTISKAKGQPREPQVYTLPPSREEMTKNQVSLTCLVKGFYPSDIAVEWESNGQPENNYKTTPPVLDSDGSFFLYSKLTVDKSRWQQGNVFSCSVMHEALHNHYTQKSLSLSPG
notes: also called IL-2 L53I N88D V69A, Q74P, C125S-G4Sx4-Fc
B6: IL-2 mutein SEQ ID NO: 55 (Fc fusion)
chain: B5 chain with I53L, L80I
notes: also called IL-2 L80I N88D V69A, C125S Q74P-G4Sx4-Fc
B7: IL-2 mutein SEQ ID NO: 56 (Fc fusion)
chain: B5 chain with I53L, L118I
notes: also called IL-2 L118I N88D V69A, Q74P, C125S-G4Sx4-Fc
B8: IL-2 mutein SEQ ID NO: 54 (Fc fusion)
chain: B5 chain with I53L, L56I
notes: also called IL-2 L56I N88D V69A, Q74P, C125S-G4Sx4-Fc

Each binder was assayed against T1, recombinant mouse MAdCAM-1 (assay: Octet).

Row | Binder | binding result
1 | B1 | no binding
2 | B2 | no binding
3 | B3 | no binding
4 | B4 | no binding

What follows are binders tested against T2, human MAdCAM expressed on cells (assay: cell binding).

Row | Binder | binding result
5 | B1 | binds
6 | B2 | binds
7 | B3 | binds
8 | B4 | binds

The binders below were run against T3, mouse MAdCAM expressed on cells (assay: cell binding).

Row | Binder | binding result
9 | B1 | no binding
10 | B2 | no binding
11 | B3 | no binding
12 | B4 | no binding

These binders were tested against T4, CD25 (assay: ELISA, CD25 coated plate).

Row | Binder | EC50
13 | B5 | < 1 nM
14 | B6 | < 1 nM
15 | B7 | < 1 nM
16 | B8 | < 1 nM
